Data set [1] addresses Zif268 finger 2 variant KASN finger 2 alpha-helix variant KASN (full helix only in FIG. 1D) (Mus musculus) (UniProt P08046). The conditions noted are these: [none].
The target in data set [2] is Zif268 finger 2 variant REDV finger 2 alpha-helix variant REDV (full helix only in FIG. 1D) (Mus musculus) (UniProt P08046). The settings on record: [none].
Data set [3] addresses Zif268 finger 2 variant RGPD finger 2 alpha-helix variant RGPD (full helix only in FIG. 1D) (Mus musculus) (UniProt P08046). The settings on record: [none].
The target is the same in data set [4]. Description: ELONA. The settings on record: [none]; apparent Kd, phage ELISA, PBS/Zn, RT.
Data set [5] addresses Zif268 finger 2 variant REDV finger 2 alpha-helix variant REDV (full helix only in FIG. 1D) (Mus musculus) (UniProt P08046). Kind of data set: ELONA. The conditions noted are these: [none]; apparent Kd, phage ELISA, PBS/Zn, RT. (In general: An ELISA detects its analyte on a solid surface through an enzyme-linked reagent.)
Data set [6] addresses Zif268 finger 2 variant LRHN finger 2 alpha-helix variant LRHN (full helix only in FIG. 1D) (Mus musculus) (UniProt P08046). The conditions noted are these: [none].
Data set [7] has the same target. Kind of data set: ELONA. The conditions noted are these: [none]; apparent Kd, phage ELISA, PBS/Zn, RT.
In data set [8] the target is Zif268 finger 2 variant KASN finger 2 alpha-helix variant KASN (full helix only in FIG. 1D) (Mus musculus) (UniProt P08046). Kind of data set: ELONA. The settings on record: [none]; apparent Kd, phage ELISA, PBS/Zn, RT.
Data set [9] deals with Zif268 wildtype (three zinc fingers, phage displayed) (Mus musculus) (UniProt P08046). Description: ELONA. The settings on record: apparent non-equilibrium Kd, phage ELISA, all values scaled to this one (3.0 nM); PBS/Zn, milk, Tween 20, salmon testes DNA, RT.
The mark [10] stands for this setting: apparent Kd interpolated from microarray signal 0.122.
The mark [11] stands for this setting: apparent Kd interpolated from microarray signal 0.063.

Like-named read-outs stand apart in the source and are kept apart here.

For the sequence “TATATAGCGCGCGCGTATATATCAAGTCAATCGGTCC (double strand) [Zif268 site CGC]”, the Kd in data set [1] (apparent Kd interpolated from microarray signal 0.774) was 390 nM.
For “TATATAGCGGCAGCGTATATATCAAGTCAATCGGTCC (double strand) [Zif268 site GCA]”, the Kd in data set [2] (apparent Kd interpolated from microarray signal 0.108) is 1300 nM; in data set [3] (apparent Kd interpolated from microarray signal 0.216) it was 510 nM.
Turning to “TATATAGCGGCCGCGTATATATCAAGTCAATCGGTCC (double strand) [Zif268 site GCC]”, the results for the Kd in [2] (apparent Kd interpolated from microarray signal 0.084) and in data set [4] were 1500 nM and 600 nM, respectively.
For the sequence “TATATAGCGGCGGCGTATATATCAAGTCAATCGGTCC (double strand) [Zif268 site GCG]”, the Kd in data set [5] was 11 nM; in data set [4] it was 17 nM.
In the case of “TATATAGCGAGTGCGTATATATCAAGTCAATCGGTCC (double strand) [Zif268 site AGT]”, the Kd in data set [6] (apparent Kd interpolated from microarray signal 0.449) worked out at 93 nM; in data set [1] (apparent Kd interpolated from microarray signal 0.862), 320 nM.
On to “TATATAGCGACTGCGTATATATCAAGTCAATCGGTCC (double strand) [Zif268 site ACT]”, for which the figures for the Kd in [6] (apparent Kd interpolated from microarray signal 0.342) and in data set [1] (apparent Kd interpolated from microarray signal 0.949) were 160 nM and 260 nM, respectively.
For the sequence “TATATAGCGGACGCGTATATATCAAGTCAATCGGTCC (double strand) [Zif268 site GAC]”, in data set [1] (apparent Kd interpolated from microarray signal 0.652), the Kd turned out to be 1300 nM.
On to “TATATAGCGGTGGCGTATATATCAAGTCAATCGGTCC (double strand) [Zif268 site GTG]”, for which the Kd in data set [3] (apparent Kd interpolated from microarray signal 0.175) turned out to be 610 nM; in data set [5] it was 11 nM.
As for “TATATAGCGCTCGCGTATATATCAAGTCAATCGGTCC (double strand) [Zif268 site CTC]”, the Kd in data set [2] (apparent Kd interpolated from microarray signal 0.058) was found to be 1800 nM; in data set [3] (setting [10]) it was 760 nM.
For “TATATAGCGCCGGCGTATATATCAAGTCAATCGGTCC (double strand) [Zif268 site CCG]”, the Kd in data set [5] was 880 nM; in data set [4], 250 nM.
For the sequence “TATATAGCGTATGCGTATATATCAAGTCAATCGGTCC (double strand) [Zif268 site TAT]”, the Kd in data set [7] came to 6.3 nM; in data set [8], 270 nM.
As for “TATATAGCGGAGGCGTATATATCAAGTCAATCGGTCC (double strand) [Zif268 site GAG]”, the figures for the Kd in data set [2] (apparent Kd interpolated from microarray signal 0.120) and in [3] (apparent Kd interpolated from microarray signal 0.151) were 690 nM and 670 nM, respectively.
On to “TATATAGCGGGGGCGTATATATCAAGTCAATCGGTCC (double strand) [Zif268 site GGG]”, for which the Kd was determined as 1700 nM in [1] (apparent Kd interpolated from microarray signal 0.612), 1100 nM in [2] (setting [10]) and 770 nM in [3] (apparent Kd interpolated from microarray signal 0.118).
For “TATATAGCGGAAGCGTATATATCAAGTCAATCGGTCC (double strand) [Zif268 site GAA]”, the Kd in data set [1] (apparent Kd interpolated from microarray signal 0.697) came to 1000 nM.
For the sequence “TATATAGCGCAGGCGTATATATCAAGTCAATCGGTCC (double strand) [Zif268 site CAG]”, the Kd in data set [2] (apparent Kd interpolated from microarray signal 0.056) worked out at 1800 nM; in data set [3] (apparent Kd interpolated from microarray signal 0.105), 820 nM.
In the case of “TATATAGCGGGTGCGTATATATCAAGTCAATCGGTCC (double strand) [Zif268 site GGT]”, the Kd in [6] (apparent Kd interpolated from microarray signal 0.238) came to 260 nM; in data set [1] (apparent Kd interpolated from microarray signal 0.616) it was 1600 nM.
With “TATATAGCGATGGCGTATATATCAAGTCAATCGGTCC (double strand) [Zif268 site ATG]”, the Kd in data set [2] (apparent Kd interpolated from microarray signal 0.069) was determined as 1600 nM; in [3] (apparent Kd interpolated from microarray signal 0.136), 720 nM.
Turning to “TATATAGCGTGTGCGTATATATCAAGTCAATCGGTCC (double strand) [Zif268 site TGT]”, the results for the Kd in data set [6] (apparent Kd interpolated from microarray signal 0.384) and in data set [1] (apparent Kd interpolated from microarray signal 0.856) were 130 nM and 320 nM, respectively.
In the case of “TATATAGCGATTGCGTATATATCAAGTCAATCGGTCC (double strand) [Zif268 site ATT]”, the figures for the Kd in [1] (apparent Kd interpolated from microarray signal 0.942) and in [7] were 270 nM and 240 nM, respectively.
As for “TATATAGCGACGGCGTATATATCAAGTCAATCGGTCC (double strand) [Zif268 site ACG]”, the values for the Kd in data set [2] (setting [11]) and in data set [3] (apparent Kd interpolated from microarray signal 0.143) were 1700 nM and 690 nM, respectively.
Turning to “TATATAGCGAATGCGTATATATCAAGTCAATCGGTCC (double strand) [Zif268 site AAT]”, the Kd in data set [7] was found to be 110 nM; in data set [8], 250 nM.
In the case of “TATATAGCGTCTGCGTATATATCAAGTCAATCGGTCC (double strand) [Zif268 site TCT]”, the Kd in data set [2] (apparent Kd interpolated from microarray signal 0.083) is 1500 nM; in data set [3] (apparent Kd interpolated from microarray signal 0.146), 690 nM.
As for “TATATAGCGCCCGCGTATATATCAAGTCAATCGGTCC (double strand) [Zif268 site CCC]”, the Kd in data set [2] (setting [11]) amounted to 1700 nM; in data set [3] (apparent Kd interpolated from microarray signal 0.119), 770 nM.
As to “TATATAGCGCGGGCGTATATATCAAGTCAATCGGTCC (double strand) [Zif268 site CGG]”, the Kd in [8] was found to be 1460 nM.
Consider “TATATAGCGGATGCGTATATATCAAGTCAATCGGTCC (double strand) [Zif268 site GAT]”, for which the Kd in [6] (apparent Kd interpolated from microarray signal 0.500) was 72 nM.
On to “TATATAGCGCGTGCGTATATATCAAGTCAATCGGTCC (double strand) [Zif268 site CGT]”, for which the results for the Kd in data set [6] (apparent Kd interpolated from microarray signal 0.330) and in [1] (apparent Kd interpolated from microarray signal 0.848) were 170 nM and 330 nM, respectively.
Turning to “TATATAGCGGGCGCGTATATATCAAGTCAATCGGTCC (double strand) [Zif268 site GGC]”, the Kd in [1] (apparent Kd interpolated from microarray signal 0.636) was 1400 nM.
Turning to “TATATAGCGCATGCGTATATATCAAGTCAATCGGTCC (double strand) [Zif268 site CAT]”, the Kd in data set [7] amounted to 120 nM.
With “TATATAGCGTGGGCGTATATATCAAGTCAATCGGTCC (double strand) [Zif268 site TGG]”, the Kd in data set [9] worked out at 3 nM.
As to “TATATAGCGTACGCGTATATATCAAGTCAATCGGTCC (double strand) [Zif268 site TAC]”, the Kd in data set [6] (apparent Kd interpolated from microarray signal 0.329) turned out to be 170 nM.
Take “TATATAGCGGCTGCGTATATATCAAGTCAATCGGTCC (double strand) [Zif268 site GCT]”: the Kd in data set [2] (apparent Kd interpolated from microarray signal 0.077) worked out at 1600 nM; in data set [3] (apparent Kd interpolated from microarray signal 0.406), 220 nM.
Turning to “TATATAGCGCCTGCGTATATATCAAGTCAATCGGTCC (double strand) [Zif268 site CCT]”, the Kd is 200 nM in data set [6] (apparent Kd interpolated from microarray signal 0.298) and 250 nM in [1] (apparent Kd interpolated from microarray signal 0.974).
As for “TATATAGCGTAGGCGTATATATCAAGTCAATCGGTCC (double strand) [Zif268 site TAG]”, the Kd in data set [7] is 110 nM; in [8], 390 nM.

For the origin of these results see patent publication US20040203002.
